Reference: patent US6913892 (H LUNDBECK A S, dated 2005)
Where two headings read alike, the source gives them in different places. Where no end group is shown, it is not given here.

T1: human Y1 receptor (human, UniProt P25929 1-384)
T1 construct: Transiently expressed in COS-7 cells; membranes used; also called cloned human Y1 receptor (Larhammar et al., 1992)
T1 sequence: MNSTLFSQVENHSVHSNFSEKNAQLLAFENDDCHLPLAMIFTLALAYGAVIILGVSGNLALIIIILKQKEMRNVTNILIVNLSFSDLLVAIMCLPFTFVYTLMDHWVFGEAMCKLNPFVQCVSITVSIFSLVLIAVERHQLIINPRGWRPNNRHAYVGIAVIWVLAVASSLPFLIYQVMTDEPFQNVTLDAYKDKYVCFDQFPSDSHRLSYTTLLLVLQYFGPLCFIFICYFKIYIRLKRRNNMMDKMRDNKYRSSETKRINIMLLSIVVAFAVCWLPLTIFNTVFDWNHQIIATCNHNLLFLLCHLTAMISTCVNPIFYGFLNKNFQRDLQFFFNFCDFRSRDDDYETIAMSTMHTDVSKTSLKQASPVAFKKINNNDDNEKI

B1: human peptide YY (peptide)
peptide: not shown
modifications: C-terminal amide
notes: mature; also called human PYY; PYY, human
B2: human neuropeptide Y (peptide)
peptide: not shown
modifications: C-terminal amide
B3: Phe-Met-Arg-Phe-Amide (peptide)
peptide: FMRF-NH2
notes: Tetrapeptide invertebrate neurotransmitter; also called FMRF-amide; FMRFamide
B4: porcine PYY13-36 (peptide, UniProt P68005 13-36, looked up)
peptide: SPEELSRYYASLRHYLNLVTRQRY-NH2
notes: range 13-36; also called PYY13-36, porcine

Assays:
[1] = target: T2, rat Y4 receptor (rat, UniProt Q63447 1-375); test: 125I-PYY displacement, COS-7 membranes
T2 construct: Full-length receptor (375 aa) transiently expressed in COS-7 cells; membranes used; also called rs16b; rat Y4 homolog

[2] = target: T3, human Y4 receptor (human, UniProt P0DQD5 1-375); test: 125I-PYY displacement, COS-7 membranes
T3 construct: also called hp25a; hp25a receptor

[3] = target: T3, human Y4 receptor; test: cell-based or functional assay
[4] = target: T3, human Y4 receptor; test: 125I-PYY displacement, COS-7 membranes; remark: listed apart in the source
[5] = target: T3, human Y4 receptor; test: 125I-PYY displacement, COS-7 membranes; remark: listed apart in the source
Method: (§1) Radioligand Binding to Membrane Suspensions: Membrane suspensions were diluted in binding buffer supplemented with 0.1% bovine serum albumin and 0.1% bacitracin to yield an optimal membrane protein concentration: ~0.02 mg/ml for human Y1 receptors, ~0.015 mg/ml for hp25a receptors, and ~0.25 mg/ml for SK-N-Be(2). […] Incubations were terminated by filtration over Whatman GF/C filters (pre-coated with 0.5% polyethyleneimine and air-dried before use). […] Binding data were analyzed using nonlinear regression and statistical techniques available in the GraphPAD InPlot package (San Diego, Calif.). […] Whatman GF/C filters were from Brandel (Gaithersburg, Md.). Bio-Rad Reagent was from Bio-Rad (Hercules, Calif.). Bovine serum albumin and bacitracin were from Sigma (St. Louis, Mo.). All other materials were reagent grade.

[6] = target: T1, human Y1 receptor; test: 125I-PYY displacement, COS-7 membranes
Method: as §1

[7] = target: T3, human Y4 receptor; test: 125I-PYY displacement, COS-7 membranes (as in Table 3)
Method: as §1

[8] = target: T3, human Y4 receptor; test: 125I-PYY displacement, COS-7 membranes; remark: listed apart in the source
Method: (§2) Data are representative of at least two independent experiments, with each point measured once or in duplicate.
(§3) Radioligand Binding to Membrane Suspensions: Membrane suspensions were diluted in binding buffer supplemented with 0.1% bovine serum albumin and 0.1% bacitracin to yield an optimal membrane protein concentration: ~0.02 mg/ml for human Y1 receptors, ~0.015 mg/ml for hp25a receptors, and ~0.25 mg/ml for SK-N-Be(2). […] Incubations were terminated by filtration over Whatman GF/C filters (pre-coated with 0.5% polyethyleneimine and air-dried before use). […] Binding data were analyzed using nonlinear regression and statistical techniques available in the GraphPAD InPlot package (San Diego, Calif.).

[9] = target: T1, human Y1 receptor; test: 125I-PYY displacement, COS-7 membranes; remark: listed apart in the source
Method: as §2, §3

T3 sequence (P0DQD5 whole entry): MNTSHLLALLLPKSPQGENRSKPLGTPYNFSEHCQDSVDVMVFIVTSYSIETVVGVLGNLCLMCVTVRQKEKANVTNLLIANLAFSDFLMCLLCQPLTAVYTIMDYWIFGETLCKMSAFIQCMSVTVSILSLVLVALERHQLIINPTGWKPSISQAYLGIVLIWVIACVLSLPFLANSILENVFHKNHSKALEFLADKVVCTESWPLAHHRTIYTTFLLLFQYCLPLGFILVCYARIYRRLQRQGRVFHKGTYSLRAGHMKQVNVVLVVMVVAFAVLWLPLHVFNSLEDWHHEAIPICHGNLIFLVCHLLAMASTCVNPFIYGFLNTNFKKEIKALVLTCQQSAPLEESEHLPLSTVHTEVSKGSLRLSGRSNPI
T2 sequence (Q63447 whole entry R262P): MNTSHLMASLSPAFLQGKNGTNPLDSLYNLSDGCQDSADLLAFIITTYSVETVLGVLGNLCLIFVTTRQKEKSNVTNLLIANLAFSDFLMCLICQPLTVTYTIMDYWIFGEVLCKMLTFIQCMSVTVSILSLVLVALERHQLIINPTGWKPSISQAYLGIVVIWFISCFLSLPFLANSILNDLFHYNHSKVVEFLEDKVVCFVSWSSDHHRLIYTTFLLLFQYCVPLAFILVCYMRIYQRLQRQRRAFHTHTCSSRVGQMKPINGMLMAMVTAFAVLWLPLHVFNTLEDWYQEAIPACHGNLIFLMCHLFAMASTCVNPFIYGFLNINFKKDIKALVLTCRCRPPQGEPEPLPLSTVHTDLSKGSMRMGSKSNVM

Binder | Ki [1] | EC50, inhibition of forskolin-stimulated cAMP accumulation, LM(tk-) cells [3] | Ki [5] | Ki [7] | other results
APLEPVYPGDNATPEQMAQYAADLRRYINMLTRPRY-NH2 (peptide, UniProt P01298 30-65, looked up, mature; also called human PP; PP, human) [human pancreatic polypeptide] | 0.12 nM | 0.09 nM |  |  | Ki [2]: 0.02 nM
APLEPEYPGDNATPEQMAQYAAELRRYINMLTRPRY-NH2 (peptide, UniProt P01302 30-65, looked up, mature; also called bovine PP) [PP, bovine] | 0.15 nM |  | 0.05 nM |  | Ki [4]: 0.05 nM; Ki [6]: 240 nM
APLEPVYPGDNATPEQMAQYAADLRRYINMITRQRY-NH2 (peptide, UniProt P01298 30-65, looked up, mature) [[Ile^31, Gln^34]PP, human] |  | 0.27 nM | 0.09 nM | 0.09 nM | 
B1 |  | 47 nM |  |  | Ki [8]: 0.62 nM; Ki [9]: 0.085 nM; Ki [6]: 0.19 nM
B2 |  | 20 nM |  |  | 
PLEPVYPGDNATPEQMAQYAADLRRYINMLTRPRY-NH2 (peptide, UniProt P01298 31-65, looked up) [PP2-36, human] |  | 0.08 nM |  |  | 
TPEQMAQYAADLRRYINMLTRPRY-NH2 (peptide, UniProt P01298 42-65, looked up, range 13-36) [PP13-36, human] |  | 580 nM | 39 nM | 39 nM | 
YINMLTRPRY-NH2 (peptide, UniProt P01298 56-65, looked up, range 27-36) [PP27-36, human] |  | 3500 nM |  | > 88 nM | 
LTRPRY-NH2 (peptide, UniProt P01298 60-65, looked up, range 60-65; also called human PP31-36) [PP31-36, human] | 20 nM | 89000 nM | 350 nM | > 10000 nM | Ki [4]: 350 nM
B3 |  |  | 4000 nM |  | 
APLEPMYPGDYATHEQRAQYETQLRRYINTLTRPRY-NH2 (peptide, UniProt P06303 30-65, looked up, mature; also called rat PP) [PP, rat] | 0.2 nM |  | 0.18 nM |  | Ki [4]: 0.18 nM; Ki [6]: 460 nM
B4 |  |  |  |  | Ki [8]: 47 nM
